The results in this text go back to paper PMC7862611, “Ribosome-bound Get4/5 facilitates the capture of tail-anchored proteins by Sgt2 in yeast” (Nature Communications, 2021).

Test [1] has as its target T1, RNCs carrying the most N-terminal 100 residues of Pgk1 as a nascent chain (yeast (S. cerevisiae) | S. cerevisiae) (UniProt P00560).
T1 sequence (P00560 1-100, looked up): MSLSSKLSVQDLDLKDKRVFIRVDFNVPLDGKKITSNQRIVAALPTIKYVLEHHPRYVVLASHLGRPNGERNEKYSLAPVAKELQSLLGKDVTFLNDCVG
The experiment in a line: pull-down; FLAG-tag pull-down of RNCs with N-terminally FLAG-tagged nascent chains made in yeast translation extracts (wild type, Δsrp54, without Get4/5, without Sgt2 or Get3; with or without 2 µM purified His6Get4/Get5), RNCs first pelleted through a sucrose cushion; immunoblot.

The target of test [2] is released Sec22 (yeast (S. cerevisiae)) (UniProt P22214). The test is described as follows: pull-down; FLAG-tag pull-down of radiolabelled ribosome-released FLAG-Sec22 from yeast translation reactions (wild type, Δget3 with or without 2 µM His6Get4/Get5, Δget3Δget4Δget5); immunoblot. For orientation: A western blot detects proteins with antibodies after separation by electrophoresis.

A further test has as its target 80S ribosome (S. cerevisiae). The test is described as follows: fluorescence polarisation; fluorescence anisotropy; Get4/5-Atto390 held at 20 nM, 80S ribosomes added to 20–500 nM; 20 °C; 50 mM Tris/HCl pH 7.5, 70 mM NH4Cl, 30 mM KCl, 7 mM MgCl2; one site saturation binding fit. The settings on record: both partners purified. On the technique in general: In fluorescence polarisation assays a small probe gives low polarisation when free and higher when bound to something large.

Sequence of released Sec22 (yeast (S. cerevisiae)) (P22214 whole entry): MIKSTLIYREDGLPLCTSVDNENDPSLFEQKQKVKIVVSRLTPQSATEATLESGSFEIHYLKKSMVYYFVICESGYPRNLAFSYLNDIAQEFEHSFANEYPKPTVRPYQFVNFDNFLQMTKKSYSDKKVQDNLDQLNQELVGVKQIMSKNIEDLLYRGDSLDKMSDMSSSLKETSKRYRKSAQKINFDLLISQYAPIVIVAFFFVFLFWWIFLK

Regarding “Get5 (from UniProt Q12285 1-212) (natural protein)”, in test [1], the percent associated with RNCs came out at 2%.

Turning to “Sgt2 (from UniProt Q12118 1-346) (natural protein)”, the fold change of binding with added m3 against no addition, Δget3 extract in test [2] is > 2 fold.

In test [1], “Get4 (from UniProt Q12125 1-312) (natural protein)” returned a percent associated with RNCs of 2%.

B1: Get4/5-Atto390 (complex, yeast (S. cerevisiae))
chain 1: MVPAESNAVQAKLAKTLQRFENKIKAGDYYEAHQTLRTIANRYVRSKSYEHAIELISQGALSFLKAKQGGSGTDLIFYLLEVYDLAEVKVDDISVARLVRLIAELDPSEPNLKDVITGMNNWSIKFSEYKFGDPYLHNTIGSKLLEGDFVYEAERYFMLGTHDSMIKYVDLLWDWLCQVDDIEDSTVAEFFSRLVFNYLFISNISFAHESKDIFLERFIEKFHPKYEKIDKNGYEIVFFEDYSDLNFLQLLLITCQTKDKSYFLNLKNHYLDFSQAYKSELEFLGQEYFNIVAPKQTNFLQDMMSGFLGGSK
chain 2: MSTSASGPEHEFVSKFLTLATLTEPKLPKSYTKPLKDVTNLGVPLPTLKYKYKQNRAKKLKLHQDQQGQDNAAVHLTLKKIQAPKFSIEHDFSPSDTILQIKQHLISEEKASHISEIKLLLKGKVLHDNLFLSDLKVTPANSTITVMIKPNPTISKEPEAEKSTNSPAPAPPQELTVPWDDIEALLKNNFENDQAAVRQVMERLQKGWSLAK
modifications: ATTO-390-maleimide on the surface-exposed cysteine of the two cysteines present in Get4 (C177, 255)
notes: Get4, yeast; Get5, yeast; also called Get4/His6Get5; Get4_(2)Get5_(2) complex; copies: 2 + 2
The Kd is the free concentration of one partner at which half of the binding sites on the other are occupied at equilibrium, for simple one-to-one binding. B1 gave a Kd with 80S ribosome of 110 nM.

B2: signal recognition particle (SRP), followed by its 54 kDa subunit Srp54 (natural protein)
chain: MVLADLGKRINSAVNNAISNTQDDFTTSVDVMLKGIVTALLESDVNIALVSKLRNNIRSQLLSENRSEKSTTNAQTKKLIQKTVFDELCKLVTCEGSEEKAFVPKKRKTNIIMFVGLQGSGKTTSCTKLAVYYSKRGFKVGLVCADTFRAGAFDQLKQNAIRARIPFYGSYTETDPAKVAEEGINKFKKEKFDIIIVDTSGRHHQEEELFQEMIEISNVIKPNQTIMVLDASIGQAAEQQSKAFKESSDFGAIILTKMDGHARGGGAISAVAATNTPIIFIGTGEHIHDLEKFSPKSFISKLLGIGDIESLFEQLQTVSNKEDAKATMENIQKGKFTLLDFKKQMQTIMKMGPLSNIAQMIPGMSNMMNQVGEEETSQKMKKMVYVLDSMTKEELESDGRMFIEEPTRMVRVAKGSGTSVFEVEMILMQQQMMARMAQTATQQQPGAPGANARMPGMPNMPGMPNMPGMPNMPGMPKVTPQMMQQAQQKLKQNPGLMQNMMNMFGGGMGGGMGGGMPDMNEMMKMMQDPQMQQMAKQFGMG
For B2, the percent associated with RNCs in test [1] was determined as 0.3%.
